Assays:
Test in all cases: Co-immunoprecipitation with Bcl-2 family proteins in HEK293T cells
Type in all cases: binding
Bcl-2 = Bcl-2 (Homo sapiens, UniProt P10415)
Excerpt: (§1) (A) HEK293T cells were transfected with pcDNA3-myc plasmids encoding Bax or other Bcl-2 family proteins with GFP, GFP-HN, or GFP-HN(C8P). Cell lysates were immunoprecipitated with polyclonal anti-GFP antibody. The immunoprecipitates or the lysates were blotted with anti-myc or anti-GFP antibodies, respectively. The slower migrating form of GFP seen in lane 1 (asterisk)represents an alternative form of GFP produced from the wild-type (control) p-EGFP-Cl plasmid (http://clonotech.com). (B) Testes of three-week-old mice were homogenized in lysis buffer (0.1% Triton X-100, 50 mM Tris-HCl, pH7.5, 1 mM EDTA, plus protease inhibitor cocktail). The lysates were immunoprecipitated with control rabbit serum or polyclonal anti-mouse Bax antibody. The immunoprecipitates or the lysates were subjected to electrophoresis in Tris/Tricine gels (16% T, 3% C), electroblotted to PVDF membrane, and immunoblotted with polyclonal anti-HN antibody or monoclonal anti-Bax antibody 6A7 (Trevigen). (C) The affinity (Kd) of Bax/HN interaction was measured by fluorescence polarization assay, using various concentrations of purified recombinant Bax and 40 nM rhodamine-conjugated HN peptide. Control peptide from CD40 is also shown (mean +Std Dev; n=3).
(§2) Furthermore, multiple Bcl-2 family proteins were surveyed for interactions with Humanin by coimmunoprecipitation experiments (FIG. 5A).
(§3) Immunoblotting and immunoprecipitations were performed as follows. Immunoblotting was performed as described previously (Fields and Song, Nature 340:245-246 (1989)). For co-immunoprecipitations, cells were cultured in 50 uM […] Valine Alanine Asparate fluoromethyl-ketone (zVAD-fmk) to prevent apoptosis. Cells were suspended in lysis buffer (50 mM Tris-HCl, pH7.4; 150 mM NaCl; 20 mM EDTA; 50 mM NaF; 0.5% NP-40; 0.1 mM Na3VO4; 20 ug/ml Leupeptin; 20 ug/ml Aprotinin; 1 mM DTT; and 1 mM PMSF). Lysates (200 ul diluted in 1 ml final volume of lysis buffer) were cleared by incubation with 15 ul of protein G-Sepharose 4B (Zymed) and then incubated with 15 ul of polyclonal antibody and 15 ul of protein G at 4° C. overnight. Beads were then washed 4 times with 1.5 mls lysis buffer before boiling in Laemmli sample buffer and performing SDS-PAGE/immunoblotting.

Mcl-1 = Mcl-1 (Homo sapiens, UniProt Q07820)
Sequence of Mcl-1 (Q07820 whole entry, species assumed): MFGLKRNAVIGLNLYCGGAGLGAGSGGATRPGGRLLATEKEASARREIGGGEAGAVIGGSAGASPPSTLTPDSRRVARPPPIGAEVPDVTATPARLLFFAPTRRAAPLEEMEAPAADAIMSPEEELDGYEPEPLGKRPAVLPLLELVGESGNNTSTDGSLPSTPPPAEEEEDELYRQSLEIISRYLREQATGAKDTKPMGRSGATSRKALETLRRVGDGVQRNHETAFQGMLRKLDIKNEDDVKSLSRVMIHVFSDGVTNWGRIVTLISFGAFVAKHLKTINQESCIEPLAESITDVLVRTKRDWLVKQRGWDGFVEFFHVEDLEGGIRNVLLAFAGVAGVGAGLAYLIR
Excerpt: as §1, §2, §3

Bcl-B = target: T1, Bcl-B (Homo sapiens, UniProt Q9HD36)
T1 construct: expressed in transfected cells; host or cells: HEK293T
T1 sequence (Q9HD36 1-204): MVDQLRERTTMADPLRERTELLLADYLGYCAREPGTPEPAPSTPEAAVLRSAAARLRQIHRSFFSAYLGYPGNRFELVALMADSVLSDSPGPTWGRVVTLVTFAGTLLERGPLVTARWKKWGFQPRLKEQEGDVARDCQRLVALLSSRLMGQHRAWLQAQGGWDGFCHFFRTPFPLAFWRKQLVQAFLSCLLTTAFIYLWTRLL
Excerpt: as §1, §2, §3

Bok = target: T2, Bok (Homo sapiens, UniProt Q9UMX3)
T2 construct: expressed in transfected cells; host or cells: HEK293T
T2 sequence (Q9UMX3 1-212): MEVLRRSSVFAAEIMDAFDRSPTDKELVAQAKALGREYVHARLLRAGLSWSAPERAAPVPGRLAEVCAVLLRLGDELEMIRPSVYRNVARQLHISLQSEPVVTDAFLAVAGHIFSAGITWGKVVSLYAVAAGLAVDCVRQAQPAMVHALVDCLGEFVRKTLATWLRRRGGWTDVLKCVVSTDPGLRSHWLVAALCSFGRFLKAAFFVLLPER
Excerpt: as §1, §2, §3

Bcl-XL = Bcl-XL (Homo sapiens, UniProt Q07817)
Sequence of Bcl-XL (Q07817 whole entry, species assumed): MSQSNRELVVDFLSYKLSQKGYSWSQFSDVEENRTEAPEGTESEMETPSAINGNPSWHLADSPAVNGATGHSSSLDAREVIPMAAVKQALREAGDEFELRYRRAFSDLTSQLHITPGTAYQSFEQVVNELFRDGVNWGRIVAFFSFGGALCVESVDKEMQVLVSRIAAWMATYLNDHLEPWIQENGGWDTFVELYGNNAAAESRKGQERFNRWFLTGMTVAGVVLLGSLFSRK
Excerpt: as §1, §2, §3

Bak = target: T3, Bak (Homo sapiens, UniProt Q16611); design: expressed in transfected cells; host or cells: HEK293T
T3 sequence (Q16611 1-211): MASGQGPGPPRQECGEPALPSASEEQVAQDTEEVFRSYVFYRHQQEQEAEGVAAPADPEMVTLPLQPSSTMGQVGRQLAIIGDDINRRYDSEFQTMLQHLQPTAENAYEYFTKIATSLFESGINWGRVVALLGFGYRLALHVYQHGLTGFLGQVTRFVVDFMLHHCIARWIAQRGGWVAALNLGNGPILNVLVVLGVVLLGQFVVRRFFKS
Excerpt: as §1
Furthermore, multiple Bcl-2 family proteins were surveyed for interactions with Humanin by coimmunoprecipitation experiments (FIG. 5A). […]

Sequence of Bcl-2 (P10415 whole entry, species assumed): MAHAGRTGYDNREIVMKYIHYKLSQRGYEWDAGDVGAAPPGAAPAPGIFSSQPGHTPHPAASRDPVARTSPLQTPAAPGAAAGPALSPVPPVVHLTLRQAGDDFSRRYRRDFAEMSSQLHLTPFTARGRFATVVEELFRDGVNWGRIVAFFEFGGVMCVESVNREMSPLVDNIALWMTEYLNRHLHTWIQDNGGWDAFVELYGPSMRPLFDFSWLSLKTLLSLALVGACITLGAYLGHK

GFP-HN: Wild-type full-length Humanin fused to Green Fluorescent Protein
did not co-immunoprecipitate: co-immunoprecipitation with Bcl-2 (Bcl-2) | co-immunoprecipitation with Mcl-1 (Mcl-1) | co-immunoprecipitation with Bcl-B (Bcl-B) | co-immunoprecipitation with Bok (Bok) | co-immunoprecipitation with Bcl-XL (Bcl-XL) | co-immunoprecipitation with Bak (Bak)
